For 21 molecules, EC50 results are on record in patent US20230250190A1 (published 2023).

Substitutions are numbered along the chain they refer to.

First the molecules themselves.
T1: T4 (Tn-MUC1) (PAPGSTAPPAHGVT(α-GalNAc)SAPDTRPAPG-OH)
T1 peptide: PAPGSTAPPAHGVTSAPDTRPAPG

T2: T9 (Tn-MUC1) (PAPGSTAPPAHGVT(α-GalNAc)S(α-GalNAc)APDTRPAPG-OH)
T2 peptide: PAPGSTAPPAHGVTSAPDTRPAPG

T3: T11 (Tn-MUC1) (PAPGSTAPPAHGVT(α-GalNAc)SAPDT(α-GalNAc)RPAPG-OH)
T3 peptide: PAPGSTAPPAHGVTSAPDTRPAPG

T4: T8 (Tn-MUC1) (PAPGST(α-GalNAc)APPAHGVTSAPDT(α-GalNAc)RPAPG-OH)
T4 peptide: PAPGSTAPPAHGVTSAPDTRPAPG

T5: S11 (sTn-MUC1) (PAPGSTAPPAHGVT(Neu5Ac-α(2-6)-GalNAc)SAPDT(Neu5Ac-a(2-6)-GalNAc)RPAPG-OH)
T5 peptide: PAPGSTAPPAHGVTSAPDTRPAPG

T6: S9 (sTn-MUC1) (PAPGSTAPPAHGVT(Neu5Ac-α(2-6)-GalNAc)S(Neu5Ac-a(2-6)-GalNAc)APDTRPAPG-OH)
T6 peptide: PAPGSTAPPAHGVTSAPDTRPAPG

T7: S4 (sTn-MUC1) (PAPGSTAPPAHGVT(Neu5Ac-α(2-6)-GalNAc)SAPDTRPAPG-OH)
T7 peptide: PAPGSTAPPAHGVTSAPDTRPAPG

B1: 102 (antibody, V domains shown)
VH: QVQLVQSGAEVKKSGASVKVSCKASGYPFISYYIHWLRQAPGQGLTWMGVINPFDGSTDYAQKFQGRVTVTRDTSTSTVYMDLSSLRADDTAIYYCARDYMRGYVVFDYWGQGTLVTVSS
B2: 146 (antibody, V domains shown)
VH: QVQLVQSGAEVKKPGASVKVSCKASGYAFTSYYIHWVRQAPGQGLEWMGVINPYGGSTNYAQKFQGRVTMTRDTSTRIVYMDLSSLRSEDTAVYYCARDAMEGDSYFDYWGQGTLVTVSS
B3: 174 (antibody, V domains shown)
VH: EVQLVESGAEVKKPGASVKVSCKASGYTFNRYYLHWVRQAPGQGLEWMGVINPYDGSTNYAQKFRGRITMTRDTSTNTVYMELSSLRSEDTAVYFCARDAMEGDSYFDKWGQGTLVTVSS
B4: 62 (antibody, V domains shown)
VH: QVQLVESGAEVKKPGASVKVSCKASGYSFTSYYIQWVRQAPGQGLEWLAVINPIDGSTNYAQKFQGRVTVTRDTSTSTVYMELSSLRSEDTAVYYCARDYMRGFVVFDYWGQGTLVTVSS
B5: 13 (antibody, V domains shown)
VH: QVQLVQSGAEVKKPGASLKVSCKASGYTFTNYYIQWVRQAPGQGLEWMGVINPYDGSTNYAQKFQGRVTLTRDTSTTTVYMELSSLRSDDTAVYYCARDYMIGYVVFDYWGQGTLVTVSS
B6: 198 (antibody, V domains shown)
VH: B5 VH with L18V, T30I, Y32N, T58I, N59H, D89E, D108E
B7: 194 (antibody, V domains shown)
VH: B5 VH with A16T, L18V, K23T, M48L, N59D, D89E, I102L, Y109F
B8: 150 (antibody, V domains shown)
VH: B5 VH with K13T, L18V, G44A, N59H, E82D, D89E, T91A, I102L
B9: 86 (antibody, V domains shown)
VH: QVQLVQSGAEVKKPGASVKVSCKASGYPFINYYIQWVRQAPGQGLEWMGVINPFDGSTNYAQKFQGRVTVTRDTSTSTVFMDLSSLRSEDTAVYYCARDNMIGYVLFDYWGQGTLVTVSS
B10: 138 (antibody, V domains shown)
VH: B9 VH with K19R, P28T, I34L, V50T, N59H, V70M, F80Y, D82E, N100S
B11: 206 (antibody, V domains shown)
VH: B9 VH with K19R, S84N, N100S, Y109F
B12: SEQ ID NO 29 (bivalent monospecific MUC1 IgG) (antibody, V domains shown)
VH: B9 VH with P28S, N31H, Q35H, G66D, Y109D
VL: not shown
B13: 33 (antibody, V domains shown)
VH: B9 VH with K19R, G66D, F107L
B14: 90 (antibody, V domains shown)
VH: B9 VH with P28T, Y32H, Q35H, M81L
B15: 82 (antibody, V domains shown)
VH: B9 VH with P28T, I30T, N31S, Q35H, F54Y, G56S, V70M
B16: 190 (antibody, V domains shown)
VH: QVQLVQSGAEVKKPGASVKVSCKASGYAFTNYYIHWVRQAPGHGLTWMGVINPFDSSTDFAQKFQGRLTMTRDTSTSTVYMDLSSLRSEDTAVYYCARDYMRGHVVFDNWGQGTLVTVSS
B17: 37 (antibody, V domains shown)
VH: QVQLVQSGAEVKKPGASVTVSCKTSGYTFTSYYIHWLRQAPGQGLEWMGVINPFGGATNYAQKFQGRVTMTRDTSTITVYMELSSLRSEDTAVYYCARDAMGGDSHFDHWGRGTLVTVSS
B18: 162 (antibody, V domains shown)
VH: QVQLVQSGAEVKKPGASVMLSCKASGYIFTSYYIQWVRQAPGQGLEWMGVVNPYDGSTNYAQKFQGRVTITRDTSTSTVFMELSSLRSEDTAVYYCARDNMLGHVIFDFWGQGTLVTVSS
B19: SEQ ID NO 178 (bivalent monospecific MUC1 IgG) (antibody, V domains shown)
VH: QVQLVQSGAEVKKPGASVKVSCKASGYTFNRHYIQWVRQAPGQGLEWMGTINPYDGSTFYAQKFQDRVTMTRDTSTSTVYMDLNSLKSEDTAVYYCARDYMRGHVLFDYWGQGTLVTVSS
VL: not shown
B20: 74 (antibody, V domains shown)
VH: QVQLVQSGAEVKKPGASVQVSCKASGYTFINYYLQWVRQAPGQGLEWMGTINPFDGSTHYEQNFQGRVTMTRDTSTNTVYMELNGLRSEDTAVYYCARDHMIGYILFDYWGQGTTVTVSS
B21: 170 (antibody, V domains shown)
VH: B20 VH with E61A, N63K, G85S, H100R, I105V, T115L

The target in one assay is T1, T4 (Tn-MUC1). In words: glycopeptide array.
Usually EC50 stands for the midpoint of the concentration-response curve. As for B1, a half-maximal response (EC50) required 0.087 µg/mL.
The same measure, in the same setting: under B2 stands 0.081 µg/mL; under B3, 0.178 µg/mL; under B4, 0.042 µg/mL.
Consider B5, for which the EC50 turned out to be 0.153 µg/mL.
Same read-out and setting: the figure for B6 is 0.111 µg/mL; for B7 it is 0.1 µg/mL.
Same read-out and setting: the figure for B8 is 0.126 µg/mL; for B9 it is 0.057 µg/mL.
Same read-out and setting: under B10 stands 0.116 µg/mL; under B11, 0.068 µg/mL.
Regarding B12, the half-maximal effective concentration (EC50) worked out at 0.104 µg/mL.
In the case of B13, the midpoint of the response, the EC50, lay at 0.076 µg/mL.
Same read-out and setting: under B14 stands 0.118 µg/mL; under B15, 0.145 µg/mL; under B16, 0.102 µg/mL.
Still for that read-out and setting: under B17 stands 0.157 µg/mL; under B18, 0.037 µg/mL.
The same measure, in the same setting: the figure for B19 is 0.103 µg/mL.
Take B20: the concentration giving a half-maximal response (EC50) is 0.111 µg/mL.
Still for that read-out and setting: the figure for B21 is 0.116 µg/mL.

In another assay the target is T2, T9 (Tn-MUC1). The assay can be described thus: glycopeptide array.
B1 registered an EC50 of 0.102 µg/mL.
Still for that read-out and setting: under B2 stands 0.086 µg/mL.
On the same count and under the same terms, under B3 stands 0.144 µg/mL; under B4, 0.045 µg/mL.
Same read-out and setting: the figure for B5 is 0.134 µg/mL; for B6 it is 0.121 µg/mL; for B7 it is 0.082 µg/mL.
Molecule B8 showed an EC50 of 0.098 µg/mL.
In turn, B9 registered an EC50 of 0.05 µg/mL.
On the same count and under the same terms, the figure for B10 is 0.096 µg/mL; for B11 it is 0.066 µg/mL.
Same read-out and setting: under B12 stands 0.118 µg/mL; under B13, 0.071 µg/mL.
Same read-out and setting: the figure for B14 is 0.102 µg/mL; for B15 it is 0.167 µg/mL; for B16 it is 0.12 µg/mL.
B17 had a concentration for a half-maximal effect (EC50) of 0.13 µg/mL.
Regarding B18, the concentration for a half-maximal effect (EC50) came to 0.037 µg/mL.
Still for that read-out and setting: the figure for B19 is 0.09 µg/mL.
As to B20, a half-maximal effect (EC50) was put at 0.096 µg/mL.
The same measure, in the same setting: the figure for B21 is 0.127 µg/mL.

In a further assay the target is T3, T11 (Tn-MUC1). The assay can be described thus: glycopeptide array.
On to B1, for which it took 0.111 µg/mL to reach a half-maximal effect (EC50).
B2 showed a concentration giving a half-maximal response (EC50) of 0.116 µg/mL.
The same measure, in the same setting: under B3 stands 0.192 µg/mL.
Same read-out and setting: under B4 stands 0.097 µg/mL; under B5, 0.158 µg/mL.
The same measure, in the same setting: the figure for B6 is 0.137 µg/mL; for B7 it is 0.109 µg/mL; for B8 it is 0.157 µg/mL.
In the case of B9, the EC50 amounted to 0.068 µg/mL.
On the same count and under the same terms, the figure for B10 is 0.123 µg/mL; for B11 it is 0.088 µg/mL.
On the same count and under the same terms, the figure for B12 is 0.126 µg/mL; for B13 it is 0.088 µg/mL; for B14 it is 0.126 µg/mL.
With B15, the EC50 turned out to be 0.227 µg/mL.
Same read-out and setting: under B16 stands 0.122 µg/mL.
The same measure, in the same setting: under B17 stands 0.158 µg/mL; under B18, 0.063 µg/mL.
On the same count and under the same terms, under B19 stands 0.108 µg/mL.
In the case of B20, a half-maximal response (EC50) required 0.137 µg/mL.
The molecule B21 yielded an EC50 of 0.141 µg/mL.

For the next assay, the target named is T4, T8 (Tn-MUC1). The assay can be described thus: glycopeptide array.
On to B1, for which the concentration giving a half-maximal response (EC50) was 0.101 µg/mL.
The molecule B2 came in with a concentration giving a half-maximal response (EC50) of 0.104 µg/mL.
The same measure, in the same setting: under B3 stands 0.174 µg/mL; under B4, 0.07 µg/mL.
The same measure, in the same setting: under B5 stands 0.145 µg/mL; under B6, 0.121 µg/mL.
The same measure, in the same setting: under B7 stands 0.099 µg/mL; under B8, 0.135 µg/mL; under B9, 0.061 µg/mL.
As to B10, the half-maximal effective concentration (EC50) amounted to 0.106 µg/mL.
B11 registered a half-maximal effective concentration (EC50) of 0.084 µg/mL.
On to B12, for which the EC50 was 0.121 µg/mL. The EC50 values of the last two molecules are within 1.5-fold of each other.
Same read-out and setting: under B13 stands 0.079 µg/mL; under B14, 0.12 µg/mL; under B15, 0.196 µg/mL.
Same read-out and setting: under B16 stands 0.108 µg/mL; under B17, 0.144 µg/mL.
Same read-out and setting: under B18 stands 0.043 µg/mL; under B19, 0.095 µg/mL.
Molecule B20 came in with an EC50 of 0.118 µg/mL.
Same read-out and setting: the figure for B21 is 0.123 µg/mL.

The next assay concerns the target T5, S11 (sTn-MUC1). In words: glycopeptide array.
B9 displayed an EC50 of 13.1 µg/mL.
With B12, a half-maximal response (EC50) required 6.96 µg/mL.
The molecule B14 showed an EC50 of 67.4 µg/mL. This EC50 lies about 9.7-fold higher than the previous one.
Same read-out and setting: under B15 stands 58.6 µg/mL.
Still for that read-out and setting: the figure for B19 is 0.335 µg/mL.

The target of another assay is T6, S9 (sTn-MUC1). In words: glycopeptide array.
B5 displayed an EC50 of 0.279 µg/mL.
The same measure, in the same setting: the figure for B9 is 0.105 µg/mL; for B12 it is 0.22 µg/mL.
On the same count and under the same terms, under B14 stands 0.207 µg/mL; under B15, 0.83 µg/mL; under B19, 0.108 µg/mL.

A further assay addresses T7, S4 (sTn-MUC1). In words: glycopeptide array.
The molecule B5 gave an EC50 of 0.156 µg/mL.
B9 came in with a concentration for a half-maximal effect (EC50) of 0.074 µg/mL. This EC50 is about 2.1-fold lower than that of the molecule before.
On the same count and under the same terms, under B12 stands 0.118 µg/mL.
The same measure, in the same setting: the figure for B14 is 0.126 µg/mL; for B15 it is 0.173 µg/mL.
Same read-out and setting: the figure for B19 is 0.098 µg/mL.
